The values that follow come from patent US20130209481A1 (University of California, published 2013).

Substitutions are numbered along the chain they refer to.

The target in experiment [1] is T1, yeast displayed EphA2 extracellular domain (EphA2 ECD, aa 25-534) (Homo sapiens (Human), UniProt P29317 25-534).
T1 construct: also called Y-EphA2; Y-EphA2 ECD
The experiment is described as follows: phage recovery: 10^11 phage with 10^8 yeast cells, elution and titration.

For experiment [2], the target named is T1, yeast displayed EphA2 extracellular …. The experiment is described as follows: yeast displayed antigen incubated with 10^9 phage, titer of bound phage.
Experiment [3] deals with T2, yeast displayed CD44 link domain (CD44 ECD domain 1, aa 21-169) (Homo sapiens (Human), UniProt P16070 21-169).
T2 construct: also called Y-CD44 D1; Y-CD44 ECD D1
The experiment is described as follows: yeast displayed antigen incubated with 10^9 phage, titer of bound phage (mismatched pair).

In experiment [4] the target is T3, EphA2 on the surface of MDAMB231 cells (native EphA2) (human, UniProt P29317 24-976).
T3 construct: whole, on cells; from NP40 cell extracts in the immunoprecipitation; also called native antigen; receptor from cell extracts of MDAMB231 cells
The experiment can be described thus: flow cytometry of phage antibody on MDAMB231 cells.

Experiment [5] concerns the target T1, yeast displayed EphA2 extracellular …. The experiment is described as follows: flow cytometry of monoclonal phage antibody on yeast displayed EphA2 ECD. In general terms: In flow cytometry, cells or beads pass a laser one at a time.
The target in experiment [6] is T3, EphA2 on the surface of MDAMB231 cells …. The experiment can be described thus: flow cytometry competition on MDAMB231 cells; competitors: phage antibodies D2-1A7 and D2-1A9.
Experiment [7] deals with T2, yeast displayed CD44 link domain (CD44 …). The experiment is described as follows: fd phage antibody selected on yeast displayed antigen; screened by flow cytometry as in Examples 4 and 5.
The target in experiment [8] is T1, yeast displayed EphA2 extracellular …. The experiment is described as above.
In experiment [9] the target is T2, yeast displayed CD44 link domain (CD44 …). The experiment can be described thus: flow cytometry of monoclonal phage antibody on yeast displayed CD44 domain 1.
The target in experiment [10] is T1, yeast displayed EphA2 extracellular …. The experiment is described as follows: phagemid antibody selected on yeast displayed antigen; screened by flow cytometry as in Examples 4 and 5.

T2 sequence (P16070 21-169 limits assumed): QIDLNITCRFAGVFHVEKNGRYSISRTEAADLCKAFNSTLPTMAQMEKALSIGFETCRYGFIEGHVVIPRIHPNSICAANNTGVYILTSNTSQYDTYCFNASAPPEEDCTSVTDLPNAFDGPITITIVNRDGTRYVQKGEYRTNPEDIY
T1 sequence (P29317 25-534 limits assumed): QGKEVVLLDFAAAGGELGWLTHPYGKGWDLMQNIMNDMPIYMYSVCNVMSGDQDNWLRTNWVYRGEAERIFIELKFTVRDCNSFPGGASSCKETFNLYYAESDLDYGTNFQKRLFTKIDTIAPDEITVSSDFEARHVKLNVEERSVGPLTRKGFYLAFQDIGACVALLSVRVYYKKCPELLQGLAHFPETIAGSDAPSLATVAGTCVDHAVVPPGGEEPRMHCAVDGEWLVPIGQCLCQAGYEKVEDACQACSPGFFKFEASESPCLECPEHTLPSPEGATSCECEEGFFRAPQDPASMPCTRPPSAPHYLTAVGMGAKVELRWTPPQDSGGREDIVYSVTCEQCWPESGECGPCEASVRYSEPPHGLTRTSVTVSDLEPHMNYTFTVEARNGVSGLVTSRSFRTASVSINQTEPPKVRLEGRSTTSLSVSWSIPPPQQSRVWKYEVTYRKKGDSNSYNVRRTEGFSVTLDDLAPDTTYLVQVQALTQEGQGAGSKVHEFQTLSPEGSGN
T3 sequence (P29317 24-976): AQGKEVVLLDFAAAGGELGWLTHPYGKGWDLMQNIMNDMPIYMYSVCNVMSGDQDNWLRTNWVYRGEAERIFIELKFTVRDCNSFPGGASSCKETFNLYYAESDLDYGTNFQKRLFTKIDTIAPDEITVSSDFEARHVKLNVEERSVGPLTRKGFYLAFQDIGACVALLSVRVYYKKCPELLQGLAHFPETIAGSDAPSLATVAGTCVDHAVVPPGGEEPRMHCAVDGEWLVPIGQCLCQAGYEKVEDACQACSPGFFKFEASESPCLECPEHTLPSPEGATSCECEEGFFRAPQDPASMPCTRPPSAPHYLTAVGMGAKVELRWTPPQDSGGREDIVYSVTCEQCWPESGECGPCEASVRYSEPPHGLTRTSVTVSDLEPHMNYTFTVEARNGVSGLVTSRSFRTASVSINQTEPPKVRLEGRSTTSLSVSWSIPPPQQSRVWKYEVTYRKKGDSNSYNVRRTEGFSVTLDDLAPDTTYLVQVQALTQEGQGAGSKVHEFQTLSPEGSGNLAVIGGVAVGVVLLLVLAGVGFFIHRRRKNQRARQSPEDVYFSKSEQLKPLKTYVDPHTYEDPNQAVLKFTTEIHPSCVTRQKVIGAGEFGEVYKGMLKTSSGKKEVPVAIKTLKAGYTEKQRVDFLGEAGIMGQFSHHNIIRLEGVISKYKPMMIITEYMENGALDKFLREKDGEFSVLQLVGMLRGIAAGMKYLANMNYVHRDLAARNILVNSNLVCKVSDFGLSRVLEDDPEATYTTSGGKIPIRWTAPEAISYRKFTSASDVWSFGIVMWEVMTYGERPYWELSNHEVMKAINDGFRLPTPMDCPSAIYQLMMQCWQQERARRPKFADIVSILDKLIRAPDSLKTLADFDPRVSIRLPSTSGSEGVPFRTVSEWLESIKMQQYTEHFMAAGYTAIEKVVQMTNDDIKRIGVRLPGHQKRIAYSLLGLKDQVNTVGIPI

B1: anti-EphA2 human scFv 2D6 (scFv, V domains shown)
VH: QVQLQESGGGLVQPGGSLRLSCAASGFTFSSYAMSWVRQAPGKGLDWVSIIYNGDNTYYADSVKGRFTISRDNSKNSLYLQMNSLRAEDTAVYYCARWSGTSYDYWGQGTLVTVSS
VL: SELTQDPAVSVALGQTVRITCQGDSLRSYYASWYQQKPGQAPLLVIYGENNRPSGIPDRFSGSSSGNTASLTITGAQAEDEADYYCHSRDSSGTHLRVFGGGTKVTVLG
notes: scFv; soluble scFv with C-terminal (His)6 tag (pUC119mycHis) in the immunoprecipitation; also called anti-EphA2 phage antibody 2D6; PhAb-EphA2
With B1, in [1], the “fold recovery of phage against recovery from yeast displaying an irrelevant scFv (Y-CON)” value was more than 10000 fold. The “PhAb Output/Input” value in [2] was 0.06 ratio of output/input phage; in experiment [3], 1e-06 ratio of output/input phage.

B2: anti-EphA2 human scFv D2-1B1 (scFv, V domains shown)
VH: QVQLQESGGGVVQPGRSLRLSCAASGFTFSSYGMHWVRQAPGKGLEWVAVISYDGSNKYYADSVKGRFTISRDNSKNTLYLQMNSLRAEDTAVYYCAKVIAGGAYYGSADYWGQGTLVTVSS
VL: B1 VL with R18K, S28T, L43V, N51S, V105L
As for B2, the binding result in experiment [4] and in [5] was “binds” in each case.

B3: anti-EphA2 human scFv D2-1A7 (scFv, V domains shown)
VH: QVQLQQSGGGVVQPGRSLRLSCAASGFTFSSYAMHWVRQAPGKGLEWVAVISYDGSNKYYADSVKGRFTISRDNSKNTLYLQMNSLRAEDTAVYYCARASVGATGPFDIWGQGTMVTVSS
VL: B1 VL with R18S, H87N, R97T, V105L
notes: soluble scFv with C-terminal (His)6 tag in the immunoprecipitation; also called anti-EphA2 phage D2-1A7
B3: the binding result in experiment [4] and in experiment [5] was “binds” each time.

B4: recombinant mouse Ephrin A1 with human Fc fusion protein (R&D Systems) (Fc fusion, UniProt P52793 19-182, looked up)
chain: DRHIVFWNSSNPKFREEDYTVHVQLNDYLDIICPHYEDDSVADAAMERYTLYMVEHQEYVACQPQSKDQVRWNCNRPSAKHGPEKLSEKFQRFTPFILGKEFKEGHSYYYISKPIYHQESQCLKLKVTVNGKITHNPQAHVNPQEKRLQADDPEVQVLHSIGYS
notes: Bought reagent; also called rEphrinA1-human Fc fusion protein; not shown: human Fc
In the case of B4, the “fold difference between the IC50 of ephrin A1 against D2-1A7 and against D2-1A9” value in experiment [6] came to 9 fold.

B5: E8H7 (scFv)
scFv: QVQLQESGGGLVQPGGSLRLSCSASGFTFSSYAMHWVRQAPGKGLEYVSAISSNGGSTYYADSVKGRFTISRDNSKNTLYLQMSSLRAEDTAVYYCVARLEWLPLAWDYWGQGTLVTVSSGGGGSGGGGSGGGGSSELTQDPAVSVALGQTVRITCQGDSLRSYYASWYQQKPGQAPVLVIYGKNNRPSGIPDRFSGSSSGNTASLTITGAQAEDEADYYCNSRDSSGNHKVFGGGTKLTVLG
notes: also called fd phage antibody E8H7
On to B5, for which the binding result in [7] was “binds”.

B6: A3H9 (scFv)
scFv: QVLLVESGGGVVQAGASLRVSCAASGFSLTSYGMHWVRQAPGKGLEWVAFISSDGSDKYYVDSVKGRFTISRDTSKNMMYLQMNSLTTEDTAVYYCAKDWGSNWYLFDYWGQGTLVTVSSGGGGSGGGGSGGGGSQSVLTQPPSASETPGQRVTISCSGSSSNIGANTVHWYQQFPGTAPKLLIYSYSQRPSGVPDRFSDSKSGTSASLAISGLQSEDEADYYCAAWDDILNGWVFGGGTKVTVLG
notes: also called fd phage antibody A3H9
Regarding B6, the binding result in [8] is listed as “binds”.

B7: anti-EphA2 human scFv D2-1A9 (scFv, V domains shown)
VH: QVQLVESGGGLIQPGGSLKLSCAASGFTVSNSYMSWVRQAPGKGLEWVAVIYSAGNTYYADSVKGRFTISRDTSNNTVHLQMNSLRPEDTAVYYCAREGSFGYDYRGQGTLVTVSS
VL: DIVMTQSPGTLSLSPGERATLSCRASQSVSSSFLGWYQQKPGQAPRLLIYGASSRATGIPDRFSGSGSGTDFTLTISRLEPEDFAVYYCQQYGISPLTFGGGTKVEIKR
notes: also called anti-EphA2 phage D2-1A9
Take B7: the binding result in [4] and in experiment [5] was “binds” throughout.

B8: E8F11 (scFv)
scFv: QVQLQQSGGGLVQPGGSLRLSCAASGFTFSSYAMSWVRQAPVKGLEWVSAISGSGGSTYYADSVKGRFTISRDNSKNTLYLQMNSLRIEDTAVYYCGRHLSSGSSVDYWGQGTLVTVSSGGGGSGGGGSGGGGSSELTQPPSASGSPGQSVTISCTGTSSDVGGYNYVSWYQQRPGYAPKLMIYDVSNRPSGVSNRFSGSKSGNSASLDISGLQSEDEADYYCAAWDDSLREFLFGTGTKVTVLG
notes: also called fd phage antibody E8F11
In the case of B8, in experiment [7], the binding result is “binds”.

B9: anti-CD44 human scFv F2-1A6 (scFv, V domains shown)
VH: QVQLVQSGAEVKKPGESLKISCKGSGYSFTSYWIGWVRQMPGKGLEWMGIIYPGDSDTRYSPSFQGQVTISADKSISTAYLQWSSLKASDTAMYYCARRLHGPFYFDYWGQGTLVTVSS
VL: SELTQDPAVSVALGQTVRITCQGDSLRSYYASWYQQKPGQAPLLVIYGKNIRPSGIPDRFSGSSSGNTASLTITGAQAEDEADYYCNSRDSSGNHVVFGGGTKLTVLG
notes: soluble scFv with C-terminal (His)6 tag in the immunoprecipitation; also called anti-CD44 phage F2-1A6
As for B9, the binding result in experiment [9] is recorded as “binds”.

B10: 1A12 (scFv)
scFv: QVQLQESGGGLVQPGGFLRLSCAASGFTFSSYGMHWVRQTPGKGLEWVSYISSSSSYTNYADSVKGRFTISRDNSKNTLYLQMNSLRAEDTAVYYCARDNWYFDLWGRGTLVTVSSGGGGSGGGGSGGGGSDVVMTQSPSTLSASVGDRVSITCRASESISRWLAWYQQKPGKAPKALIYKASSLESGVPSRFSGSGSATEFTLTINSLQPDDFATYYCQQYSSYPLTFGQGTKVDIKR
notes: also called phagemid antibody 1A12
For B10, in experiment [10], the binding result was “binds”.
